Data: patent US20210246166A1 (Bayer, published 2021)
Bridge positions count the residues as written; N and C are the ends. Square brackets hold non-standard residues; d marks the D form. Ends that are not written are not given here. Oic = O=C(O)[C@@H]1C[C@@H]2CCCC[C@@H]2N1; NMeI = CC[C@H](C)[C@H](NC)C(=O)O; tBuAla = CC(C)(C)C[C@H](N)C(=O)O; 3Pal = N[C@@H](Cc1cccnc1)C(=O)O; PEG5 = NCCOCCOCCOCCOCCOCCC(=O)O; 2Thi = N[C@@H](Cc1cccs1)C(=O)O; Pen = CC(C)(S)[C@H](N)C(=O)O; NMeC = CN[C@@H](CS)C(=O)O; Orn = NCCC[C@H](N)C(=O)O; Sar = CNCC(=O)O

Molecular target: T1, recombinant rat MASP1 active protease (amino acids 302-704, C-terminal His Tag) (rat, UniProt Q8CHN8 302-704)
T1 sequence: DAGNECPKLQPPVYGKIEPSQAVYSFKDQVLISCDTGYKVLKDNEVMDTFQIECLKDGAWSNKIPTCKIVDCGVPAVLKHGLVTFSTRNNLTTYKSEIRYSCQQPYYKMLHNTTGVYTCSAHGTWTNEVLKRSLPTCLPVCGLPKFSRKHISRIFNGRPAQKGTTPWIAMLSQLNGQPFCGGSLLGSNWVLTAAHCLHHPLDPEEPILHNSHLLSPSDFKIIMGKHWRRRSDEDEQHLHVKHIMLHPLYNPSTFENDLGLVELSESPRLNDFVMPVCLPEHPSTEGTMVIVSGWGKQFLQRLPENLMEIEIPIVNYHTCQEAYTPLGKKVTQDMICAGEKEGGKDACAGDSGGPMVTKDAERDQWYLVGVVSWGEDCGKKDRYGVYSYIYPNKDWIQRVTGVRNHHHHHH
Assay: cell-based or functional assay

| Binder | rat MASP1 IC50 |
| --- | --- |
| [Sar]ICSRSLPPICI[Oic]D-OH (disulfide 3-11; N-terminus assumed; SMILES CC[C@H](C)[C@H](NC(=O)CNC)C(=O)N[C@H]1CSSC[C@@H](C(=O)N[C@H](C(=O)N2[C@H](C(=O)N[C@@H](CC(=O)O)C(=O)O)C[C@@H]3CCCC[C@@H]32)[C@@H](C)CC)NC(=O)[C@H]([C@@H](C)CC)NC(=O)[C@@H]2CCCN2C(=O)[C@@H]2CCCN2C(=O)[C@H](CC(C)C)NC(=O)[C@H](CO)NC(=O)[C@H](CCCNC(=N)N)NC(=O)[C@H](CO)NC1=O) [Example 367: ((N-Me)G)-IC+SRSLPPIC+I-(Oic)-D-OH] | 120 nM |
| [Orn]ICSRS[tBuAla]PPI[NMeC]IPD-OH (disulfide 3-11; N-terminus assumed; SMILES CC[C@H](C)[C@H](NC(=O)[C@@H](N)CCCN)C(=O)N[C@H]1CSSC[C@@H](C(=O)N[C@H](C(=O)N2CCC[C@H]2C(=O)N[C@@H](CC(=O)O)C(=O)O)[C@@H](C)CC)N(C)C(=O)[C@H]([C@@H](C)CC)NC(=O)[C@@H]2CCCN2C(=O)[C@@H]2CCCN2C(=O)[C@H](CC(C)(C)C)NC(=O)[C@H](CO)NC(=O)[C@H](CCCNC(=N)N)NC(=O)[C@H](CO)NC1=O) [Example 479: (Orn)-IC+SRS-((tBu)A)-PPI-((N-Me)C)+IPD-OH] | 84 nM |

Molecular target: T2, recombinant human MASP1 active protease (amino acids 297-699, C-terminal His Tag) (human, UniProt P48740 297-699)
T2 sequence: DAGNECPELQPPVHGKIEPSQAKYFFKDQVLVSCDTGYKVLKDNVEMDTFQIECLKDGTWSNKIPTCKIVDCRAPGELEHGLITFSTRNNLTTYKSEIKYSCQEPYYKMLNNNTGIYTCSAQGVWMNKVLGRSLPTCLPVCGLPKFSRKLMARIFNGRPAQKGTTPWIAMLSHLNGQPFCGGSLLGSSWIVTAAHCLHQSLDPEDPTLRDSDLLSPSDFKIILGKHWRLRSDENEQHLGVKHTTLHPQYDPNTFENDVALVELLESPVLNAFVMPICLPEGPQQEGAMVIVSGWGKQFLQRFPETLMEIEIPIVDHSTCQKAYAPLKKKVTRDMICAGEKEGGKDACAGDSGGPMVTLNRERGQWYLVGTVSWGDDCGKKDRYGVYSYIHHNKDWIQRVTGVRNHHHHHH
Assay: cell-based or functional assay

| Binder | human MASP1 IC50 |
| --- | --- |
| [Orn]ICSRS[tBuAla]PPI[Pen]IPD-NH2 (disulfide 3-11; N-terminus assumed; SMILES CC[C@H](C)[C@H](NC(=O)[C@@H](N)CCCN)C(=O)N[C@H]1CSSC(C)(C)[C@@H](C(=O)N[C@H](C(=O)N2CCC[C@H]2C(=O)N[C@@H](CC(=O)O)C(N)=O)[C@@H](C)CC)NC(=O)[C@H]([C@@H](C)CC)NC(=O)[C@@H]2CCCN2C(=O)[C@@H]2CCCN2C(=O)[C@H](CC(C)(C)C)NC(=O)[C@H](CO)NC(=O)[C@H](CCCNC(=N)N)NC(=O)[C@H](CO)NC1=O) [(Orn)-IC+SRS-((tBu)A)-PPI-(Pen)+IPD-NH2] | 2 nM |
| Ac-G[NMeI]CSRSLPPICIPD-OH (disulfide 3-11; SMILES CC[C@H](C)[C@@H]1NC(=O)[C@@H]2CCCN2C(=O)[C@@H]2CCCN2C(=O)[C@H](CC(C)C)NC(=O)[C@H](CO)NC(=O)[C@H](CCCNC(=N)N)NC(=O)[C@H](CO)NC(=O)[C@@H](NC(=O)[C@H]([C@@H](C)CC)N(C)C(=O)CNC(C)=O)CSSC[C@@H](C(=O)N[C@H](C(=O)N2CCC[C@H]2C(=O)N[C@@H](CC(=O)O)C(=O)O)[C@@H](C)CC)NC1=O) [Ac-G-((N-Me)I)-C+SRSLPPIC+IPD-OH] | 2.09 nM |
| [Sar]ICSRSLP[Oic]I[Pen]IP[PEG5]-NH2 (disulfide 3-11; N-terminus assumed; SMILES CC[C@H](C)[C@H](NC(=O)CNC)C(=O)N[C@H]1CSSC(C)(C)[C@@H](C(=O)N[C@H](C(=O)N2CCC[C@H]2C(=O)NCCOCCOCCOCCOCCOCCC(N)=O)[C@@H](C)CC)NC(=O)[C@H]([C@@H](C)CC)NC(=O)[C@@H]2C[C@@H]3CCCC[C@@H]3N2C(=O)[C@@H]2CCCN2C(=O)[C@H](CC(C)C)NC(=O)[C@H](CO)NC(=O)[C@H](CCCNC(=N)N)NC(=O)[C@H](CO)NC1=O) [((N-Me)G)-IC+SRSLP-(Oic)-I-(Pen)+IP-(PEG4(19 atoms))-NH2] | 2.6 nM |
| [2Thi]ICSRS[tBuAla]PPI[Pen]IPD-NH2 (disulfide 3-11; N-terminus assumed; SMILES CC[C@H](C)[C@H](NC(=O)[C@@H](N)Cc1cccs1)C(=O)N[C@H]1CSSC(C)(C)[C@@H](C(=O)N[C@H](C(=O)N2CCC[C@H]2C(=O)N[C@@H](CC(=O)O)C(N)=O)[C@@H](C)CC)NC(=O)[C@H]([C@@H](C)CC)NC(=O)[C@@H]2CCCN2C(=O)[C@@H]2CCCN2C(=O)[C@H](CC(C)(C)C)NC(=O)[C@H](CO)NC(=O)[C@H](CCCNC(=N)N)NC(=O)[C@H](CO)NC1=O) [(beta-2-thienylalanine)-IC+SRS-((tBu)A)-PPI-(Pen)+IPD-NH2] | 2.6 nM |
| AICSRS[tBuAla]P[Oic]ICI-NH2 (disulfide 3-11; N-terminus assumed; SMILES CC[C@H](C)[C@H](NC(=O)[C@@H]1CSSC[C@H](NC(=O)[C@@H](NC(=O)[C@H](C)N)[C@@H](C)CC)C(=O)N[C@@H](CO)C(=O)N[C@@H](CCCNC(=N)N)C(=O)N[C@@H](CO)C(=O)N[C@@H](CC(C)(C)C)C(=O)N2CCC[C@H]2C(=O)N2[C@@H](C[C@@H]3CCCC[C@@H]32)C(=O)N[C@@H]([C@@H](C)CC)C(=O)N1)C(N)=O) [AIC+SRS-((tBu)A)-P-(Oic)-IC+I-NH2] | 2.7 nM |
| [Sar]ICSRSLP[Oic]I[Pen]IPD-OH (disulfide 3-11; N-terminus assumed; SMILES CC[C@H](C)[C@H](NC(=O)CNC)C(=O)N[C@H]1CSSC(C)(C)[C@@H](C(=O)N[C@H](C(=O)N2CCC[C@H]2C(=O)N[C@@H](CC(=O)O)C(=O)O)[C@@H](C)CC)NC(=O)[C@H]([C@@H](C)CC)NC(=O)[C@@H]2C[C@@H]3CCCC[C@@H]3N2C(=O)[C@@H]2CCCN2C(=O)[C@H](CC(C)C)NC(=O)[C@H](CO)NC(=O)[C@H](CCCNC(=N)N)NC(=O)[C@H](CO)NC1=O) [((N-Me)G)-IC+SRSLP-(Oic)-I-(Pen)+IPD-OH] | 2.5 nM |
| AICSRSLP[Oic]I[Pen]IPD-OH (disulfide 3-11) [AIC+SRSLP-(Oic)-I-(Pen)+IPD-OH (salt free form)] | 0.96 nM |
| PICSRS[tBuAla]PPI[Pen]IP-NH2 (disulfide 3-11; N-terminus assumed; SMILES CC[C@H](C)[C@H](NC(=O)[C@@H]1CCCN1)C(=O)N[C@H]1CSSC(C)(C)[C@@H](C(=O)N[C@H](C(=O)N2CCC[C@H]2C(N)=O)[C@@H](C)CC)NC(=O)[C@H]([C@@H](C)CC)NC(=O)[C@@H]2CCCN2C(=O)[C@@H]2CCCN2C(=O)[C@H](CC(C)(C)C)NC(=O)[C@H](CO)NC(=O)[C@H](CCCNC(=N)N)NC(=O)[C@H](CO)NC1=O) [(beta-P)-IC+SRS-((tBu)A)-PPI-(Pen)+IP-NH2] | 1.1 nM |
| AICSRSLP[Oic]I[Pen]IPD-NH2 (disulfide 3-11; also: TFA salt) [AIC+SRSLP-(Oic)-I-(Pen)+IPD-NH2] | 2.23 nM |
| [dA]ICSRS[tBuAla]PPI[Pen]IPD-NH2 (disulfide 3-11; N-terminus assumed; SMILES CC[C@H](C)[C@H](NC(=O)[C@@H](C)N)C(=O)N[C@H]1CSSC(C)(C)[C@@H](C(=O)N[C@H](C(=O)N2CCC[C@H]2C(=O)N[C@@H](CC(=O)O)C(N)=O)[C@@H](C)CC)NC(=O)[C@H]([C@@H](C)CC)NC(=O)[C@@H]2CCCN2C(=O)[C@@H]2CCCN2C(=O)[C@H](CC(C)(C)C)NC(=O)[C@H](CO)NC(=O)[C@H](CCCNC(=N)N)NC(=O)[C@H](CO)NC1=O) [aIC+SRS-((tBu)A)-PPI-(Pen)+IPD-NH2] | 2 nM |
| [3Pal]ICSRS[tBuAla]PPI[Pen]IPD-NH2 (disulfide 3-11; N-terminus assumed; SMILES CC[C@H](C)[C@H](NC(=O)[C@@H](N)Cc1cccnc1)C(=O)N[C@H]1CSSC(C)(C)[C@@H](C(=O)N[C@H](C(=O)N2CCC[C@H]2C(=O)N[C@@H](CC(=O)O)C(N)=O)[C@@H](C)CC)NC(=O)[C@H]([C@@H](C)CC)NC(=O)[C@@H]2CCCN2C(=O)[C@@H]2CCCN2C(=O)[C@H](CC(C)(C)C)NC(=O)[C@H](CO)NC(=O)[C@H](CCCNC(=N)N)NC(=O)[C@H](CO)NC1=O) [(3-Pal)-IC+SRS-((tBu)A)-PPI-(Pen)+IPD-NH2] | 2.6 nM |
